The results in this text go back to the supplement of paper PMC9112550, “Optimization of the antimicrobial peptide Bac7 by deep mutational scanning” (BMC Biology, 2022).

This data set concerns Escherichia coli TOP10. The data set is described as follows: shrunken log2 fold change of peptide-encoding DNA abundance (4.5 h post-induction vs induction); higher = less antimicrobial activity (less host growth inhibition). To be noted: time post-induction: 4.5 h; library: site-saturation at positions 5, 18, 19, 20.
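Also: peptides expressed intracellularly from a pBAD plasmid library in pooled LB shake-flask culture, induced with 0.3% L-arabinose, DNA abundance read by NGS, three biological replicates, DESeq2 with apeglm shrinkage.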

Turning to RRIRQRPPRLPRPRPRPMWNPRP, the “shrunken log2 fold change” value was -0.123.

Take RRIRLRPPRLPRPRPRPNPAPRP: the “shrunken log2 fold change” value was -0.0363.

Take RRIRRRPPRLPRPRPRPIWLPRP: the “shrunken log2 fold change” value was 0.0778.

With RRIRGRPPRLPRPRPRPNSFPRP, the “shrunken log2 fold change” value was -0.0356.

Turning to RRIRSRPPRLPRPRPRPYHYPRP, the “shrunken log2 fold change” value was -0.527.

Take RRIRHRPPRLPRPRPRPHFLPRP: the “shrunken log2 fold change” value is -0.0519.

RRIRLRPPRLPRPRPRPVQTPRP: the “shrunken log2 fold change” value came out at 0.102.

As for RRIRGRPPRLPRPRPRPLHFPRP, the “shrunken log2 fold change” value is 0.339.

With RRIRGRPPRLPRPRPRPCYKPRP, the “shrunken log2 fold change” value was -0.295.

Take RRIRARPPRLPRPRPRPPESPRP: the “shrunken log2 fold change” value is 1.02.

Turning to RRIRTRPPRLPRPRPRPVQLPRP, the “shrunken log2 fold change” value was -0.16.

As to RRIRERPPRLPRPRPRPQGVPRP, the “shrunken log2 fold change” value turned out to be 0.0697.

As to RRIRSRPPRLPRPRPRPGCWPRP, the “shrunken log2 fold change” value amounted to 0.593.

As to RRIRWRPPRLPRPRPRPNNRPRP, the “shrunken log2 fold change” value is -0.559.

Consider RRIRTRPPRLPRPRPRPFVSPRP, for which the “shrunken log2 fold change” value came to 0.00713.

For the sequence RRIRQRPPRLPRPRPRPMEVPRP, the “shrunken log2 fold change” value was -0.0855.

Take RRIRVRPPRLPRPRPRPTYVPRP: the “shrunken log2 fold change” value came to 0.00864.

With RRIRKRPPRLPRPRPRPGTLPRP, the “shrunken log2 fold change” value was found to be 0.0624.

Turning to RRIRTRPPRLPRPRPRPELWPRP, the “shrunken log2 fold change” value is -0.142.

With RRIRVRPPRLPRPRPRPLVEPRP, the “shrunken log2 fold change” value was -0.125.

With RRIRRRPPRLPRPRPRPGINPRP, the “shrunken log2 fold change” value is 0.016.

Take RRIRPRPPRLPRPRPRPTVEPRP: the “shrunken log2 fold change” value is -0.104.

RRIRCRPPRLPRPRPRPDGPPRP: the “shrunken log2 fold change” value worked out at 0.185.

Consider RRIRERPPRLPRPRPRPAREPRP, for which the “shrunken log2 fold change” value worked out at 0.0588.

With RRIRDRPPRLPRPRPRPNRKPRP, the “shrunken log2 fold change” value is -0.355.

In the case of RRIRMRPPRLPRPRPRPCDYPRP, the “shrunken log2 fold change” value was -0.163.

With RRIRTRPPRLPRPRPRPFTLPRP, the “shrunken log2 fold change” value was -0.312.

Regarding RRIRSRPPRLPRPRPRPRLIPRP, the “shrunken log2 fold change” value amounted to 0.288.

On to RRIRPRPPRLPRPRPRPPTWPRP, for which the “shrunken log2 fold change” value turned out to be 0.302.

Turning to RRIRMRPPRLPRPRPRPVQTPRP, the “shrunken log2 fold change” value is 0.0257.

On to RRIRVRPPRLPRPRPRPGREPRP, for which the “shrunken log2 fold change” value is -0.00937.

As to RRIRTRPPRLPRPRPRPLYGPRP, the “shrunken log2 fold change” value turned out to be 0.0411.

RRIRHRPPRLPRPRPRPRQHPRP: the “shrunken log2 fold change” value was 0.0285.

As for RRIRGRPPRLPRPRPRPMQVPRP, the “shrunken log2 fold change” value was 0.162.

For RRIRFRPPRLPRPRPRPGQGPRP, the “shrunken log2 fold change” value worked out at 0.249.

Consider RRIRTRPPRLPRPRPRPNEQPRP, for which the “shrunken log2 fold change” value was -0.0135.

For the sequence RRIRFRPPRLPRPRPRPVIEPRP, the “shrunken log2 fold change” value is -0.161.

For the sequence RRIRRRPPRLPRPRPRPITWPRP, the “shrunken log2 fold change” value is -0.0299.

Consider RRIRIRPPRLPRPRPRPVRSPRP, for which the “shrunken log2 fold change” value is 0.373.

RRIRLRPPRLPRPRPRPVSHPRP: the “shrunken log2 fold change” value amounted to 0.0743.

For RRIRARPPRLPRPRPRPWDAPRP, the “shrunken log2 fold change” value turned out to be 0.108.

RRIRIRPPRLPRPRPRPHGRPRP: the “shrunken log2 fold change” value was -0.0215.

Regarding RRIRSRPPRLPRPRPRPVWIPRP, the “shrunken log2 fold change” value was found to be 0.0104.

Regarding RRIRHRPPRLPRPRPRPINFPRP, the “shrunken log2 fold change” value was -0.368.

As for RRIRNRPPRLPRPRPRPQRLPRP, the “shrunken log2 fold change” value turned out to be 0.0491.

Regarding RRIRPRPPRLPRPRPRPGNCPRP, the “shrunken log2 fold change” value is -0.0898.

On to RRIRFRPPRLPRPRPRPVSYPRP, for which the “shrunken log2 fold change” value was 0.0168.

Take RRIRARPPRLPRPRPRPEFIPRP: the “shrunken log2 fold change” value is -0.189.

RRIRNRPPRLPRPRPRPFPYPRP: the “shrunken log2 fold change” value is -0.4.

As to RRIRYRPPRLPRPRPRPPYHPRP, the “shrunken log2 fold change” value was -0.82.

With RRIRTRPPRLPRPRPRPMFNPRP, the “shrunken log2 fold change” value is -0.643.

Turning to RRIRNRPPRLPRPRPRPKEDPRP, the “shrunken log2 fold change” value stood at 0.0361.

RRIRLRPPRLPRPRPRPMPTPRP: the “shrunken log2 fold change” value was found to be 0.449.

As to RRIRCRPPRLPRPRPRPFIEPRP, the “shrunken log2 fold change” value was 0.184.

For the sequence RRIRWRPPRLPRPRPRPQKGPRP, the “shrunken log2 fold change” value is -0.214.

For RRIRKRPPRLPRPRPRPDTQPRP, the “shrunken log2 fold change” value was found to be 0.202.

In the case of RRIRNRPPRLPRPRPRPEDDPRP, the “shrunken log2 fold change” value is -0.01.

Regarding RRIRFRPPRLPRPRPRPHVEPRP, the “shrunken log2 fold change” value is -0.00526.

As for RRIRYRPPRLPRPRPRPKTMPRP, the “shrunken log2 fold change” value is -0.614.

Turning to RRIRPRPPRLPRPRPRPYKWPRP, the “shrunken log2 fold change” value is -0.296.

Turning to RRIRRRPPRLPRPRPRPPNRPRP, the “shrunken log2 fold change” value was determined as 0.4.

On to RRIRQRPPRLPRPRPRPIDMPRP, for which the “shrunken log2 fold change” value is 0.00643.

As for RRIRRRPPRLPRPRPRPFFMPRP, the “shrunken log2 fold change” value was -0.0188.

With RRIRPRPPRLPRPRPRPACKPRP, the “shrunken log2 fold change” value stood at 0.0686.

On to RRIRCRPPRLPRPRPRPEPGPRP, for which the “shrunken log2 fold change” value came to 0.364.

As for RRIRSRPPRLPRPRPRPEWPPRP, the “shrunken log2 fold change” value amounted to 0.112.

Consider RRIRYRPPRLPRPRPRPFIYPRP, for which the “shrunken log2 fold change” value is -0.86.

With RRIRERPPRLPRPRPRPQEMPRP, the “shrunken log2 fold change” value was -0.391.

For RRIRIRPPRLPRPRPRPEDWPRP, the “shrunken log2 fold change” value amounted to 0.0775.

Take RRIRHRPPRLPRPRPRPQMPPRP: the “shrunken log2 fold change” value is -0.232.

For RRIRCRPPRLPRPRPRPRRGPRP, the “shrunken log2 fold change” value came to 0.392.

As to RRIRFRPPRLPRPRPRPSQFPRP, the “shrunken log2 fold change” value was -0.44.

On to RRIRERPPRLPRPRPRPITMPRP, for which the “shrunken log2 fold change” value is -0.408.

On to RRIRLRPPRLPRPRPRPRAQPRP, for which the “shrunken log2 fold change” value came out at 0.423.

As for RRIRHRPPRLPRPRPRPSTHPRP, the “shrunken log2 fold change” value was -0.564.

As to RRIRNRPPRLPRPRPRPIDGPRP, the “shrunken log2 fold change” value is -0.00962.

As for RRIRFRPPRLPRPRPRPSCYPRP, the “shrunken log2 fold change” value was -0.839.

Turning to RRIRSRPPRLPRPRPRPGKTPRP, the “shrunken log2 fold change” value was -0.112.

On to RRIRVRPPRLPRPRPRPCMGPRP, for which the “shrunken log2 fold change” value is -0.234.

Turning to RRIRHRPPRLPRPRPRPADEPRP, the “shrunken log2 fold change” value amounted to 0.0084.

As for RRIRLRPPRLPRPRPRPTKYPRP, the “shrunken log2 fold change” value is -0.47.

For the sequence RRIRQRPPRLPRPRPRPRYCPRP, the “shrunken log2 fold change” value is -0.143.

On to RRIRLRPPRLPRPRPRPTMPPRP, for which the “shrunken log2 fold change” value was -0.0783.

On to RRIRRRPPRLPRPRPRPGMRPRP, for which the “shrunken log2 fold change” value is 0.792.

With RRIRDRPPRLPRPRPRPQCLPRP, the “shrunken log2 fold change” value is 0.0413.

Take RRIRVRPPRLPRPRPRPSADPRP: the “shrunken log2 fold change” value is -0.397.

Take RRIRVRPPRLPRPRPRPGMQPRP: the “shrunken log2 fold change” value worked out at 0.116.

As to RRIRWRPPRLPRPRPRPYWKPRP, the “shrunken log2 fold change” value was -0.123.

Consider RRIRIRPPRLPRPRPRPNAIPRP, for which the “shrunken log2 fold change” value was -0.204.

As to RRIRNRPPRLPRPRPRPMAGPRP, the “shrunken log2 fold change” value amounted to 0.0481.

For the sequence RRIRARPPRLPRPRPRPIDSPRP, the “shrunken log2 fold change” value was -0.0515.

Turning to RRIRVRPPRLPRPRPRPQCMPRP, the “shrunken log2 fold change” value was -0.528.

Consider RRIRTRPPRLPRPRPRPWSIPRP, for which the “shrunken log2 fold change” value is -0.325.

In the case of RRIRNRPPRLPRPRPRPMSWPRP, the “shrunken log2 fold change” value was -0.549.

RRIRDRPPRLPRPRPRPDENPRP: the “shrunken log2 fold change” value came to 0.511.

Consider RRIRQRPPRLPRPRPRPCEVPRP, for which the “shrunken log2 fold change” value was -0.00192.

Turning to RRIRARPPRLPRPRPRPFDQPRP, the “shrunken log2 fold change” value came to 0.249.

Regarding RRIRDRPPRLPRPRPRPTCDPRP, the “shrunken log2 fold change” value was found to be 0.224.

Regarding RRIRVRPPRLPRPRPRPGSTPRP, the “shrunken log2 fold change” value is -0.311.

Turning to RRIRPRPPRLPRPRPRPQCEPRP, the “shrunken log2 fold change” value was -0.0437.

With RRIRHRPPRLPRPRPRPNTRPRP, the “shrunken log2 fold change” value is -0.28.

For the sequence RRIRQRPPRLPRPRPRPFPNPRP, the “shrunken log2 fold change” value was -0.0586.

RRIRIRPPRLPRPRPRPGMEPRP: the “shrunken log2 fold change” value was -0.375.

Take RRIRFRPPRLPRPRPRPGKEPRP: the “shrunken log2 fold change” value was -0.166.

For the sequence RRIRRRPPRLPRPRPRPFNKPRP, the “shrunken log2 fold change” value was -0.712.

In the case of RRIRDRPPRLPRPRPRPFAMPRP, the “shrunken log2 fold change” value is -0.188.

Take RRIRARPPRLPRPRPRPRNGPRP: the “shrunken log2 fold change” value came out at 0.566.

On to RRIRFRPPRLPRPRPRPDKMPRP, for which the “shrunken log2 fold change” value was 0.0125.

Turning to RRIRYRPPRLPRPRPRPISQPRP, the “shrunken log2 fold change” value was -0.299.

As to RRIRSRPPRLPRPRPRPAVEPRP, the “shrunken log2 fold change” value came out at 0.39.

On to RRIRVRPPRLPRPRPRPFIYPRP, for which the “shrunken log2 fold change” value is -0.236.

Take RRIRPRPPRLPRPRPRPSVPPRP: the “shrunken log2 fold change” value is -0.166.

Turning to RRIRFRPPRLPRPRPRPIMNPRP, the “shrunken log2 fold change” value was -0.515.

Regarding RRIRIRPPRLPRPRPRPAREPRP, the “shrunken log2 fold change” value was found to be 0.604.

Take RRIRYRPPRLPRPRPRPDDKPRP: the “shrunken log2 fold change” value is -1.56.

Take RRIRVRPPRLPRPRPRPDIIPRP: the “shrunken log2 fold change” value is -0.35.

With RRIRWRPPRLPRPRPRPWNDPRP, the “shrunken log2 fold change” value is 0.0222.

Regarding RRIRVRPPRLPRPRPRPSVDPRP, the “shrunken log2 fold change” value was -0.193.

As to RRIRARPPRLPRPRPRPNMEPRP, the “shrunken log2 fold change” value is -0.0484.

In the case of RRIRARPPRLPRPRPRPCSPPRP, the “shrunken log2 fold change” value is -0.0746.

Turning to RRIRNRPPRLPRPRPRPGKWPRP, the “shrunken log2 fold change” value is -0.0427.

Turning to RRIRTRPPRLPRPRPRPSYRPRP, the “shrunken log2 fold change” value was -0.271.

For the sequence RRIRCRPPRLPRPRPRPVFEPRP, the “shrunken log2 fold change” value is -0.00537.

For the sequence RRIRARPPRLPRPRPRPPDMPRP, the “shrunken log2 fold change” value amounted to 0.778.

On to RRIRRRPPRLPRPRPRPLVWPRP, for which the “shrunken log2 fold change” value is 0.529.
